Tests used:
[1] = biological target: HIV-1 integrase (full length wild type) (HIV-1)
[2] = biological target: HIV-1 integrase (full length wild type) (HIV-1); test: cross-linking + other: High-Mass MALDI ToF mass spectrometry; purified IN/LEDGF/INI1-IBD complex (formed by dialysis, affinity chromatography and gel filtration) chemically cross-linked before mass spectrometry; linear mode
[3] = biological target: T1, HIV-1 integrase (IN);LEDGF/p75 (HIV-1;human?, UniProt P04585;O75475 1148-1435;1-530, |); test: competition (fluorescence anisotropy); excess over N1; 5 mM Mg2+; conditions: protein: recombinant;recombinant; tags: GST tag on the IN/LEDGF complex cleaved by P3C protease; chain copies: 4;2; blunt
[4] = biological target: T2, HIV-1 integrase (IN);LEDGF/p75;INI1-IBD (HIV-1;human?;human?, UniProt P04585;O75475;Q12824 1148-1435;1-530;174-289, ||); test: as above; conditions: protein: recombinant;recombinant;recombinant; tags: GST tag on the IN/LEDGF complex cleaved by P3C protease; chain copies: 4;2;2; blunt
[5] = biological target: T1, HIV-1 integrase (IN);LEDGF/p75; test: fluorescence anisotropy; 5 mM Mg2+; 2 DNA duplexes per complex assumed; conditions: protein: recombinant;recombinant; tags: GST tag on the IN/LEDGF complex cleaved by P3C protease; chain copies: 4;2; label: 5'-6FAM on strand 1; blunt
[6] = biological target: T2, HIV-1 integrase (IN);LEDGF/p75;INI1-IBD; test: as above; conditions: protein: recombinant;recombinant;recombinant; tags: GST tag on the IN/LEDGF complex cleaved by P3C protease; chain copies: 4;2;2; label: 5'-6FAM on strand 1; blunt

Q: For “Lens Epithelium-Derived Growth Factor LEDGF/p75 (full length wild type) (from UniProt O75475 1-530) (natural protein)”, which circular full site integration products counted by cloning in bacteria, IN/LEDGF complex against isolated IN, 0.1 to 12.5 µM in IN monomers [1] is on record?
A: 2 to 10 times

Q: How did the stoichiometry N [2] turn out when “HIV-1 integrase (full length wild type) (enzyme)” was run?
A: 2

B1: non-specific DNA 49 bp, unlabeled competitor (dsDNA)
DNA 1: AGTTAAGTGCTGAATTATGATAGTAATCAATATCTACTCCTAACCTCTT
DNA 2: AAGAGGTTAGGAGTAGATATTGATTACTATCATAATTCAGCACTTAACT
Q: Does B1 bind [3]?
A: no binding

Q: Does B1 bind [4]?
A: no binding

B2: U5 vDNA 40 bp, 6FAM (dsDNA)
DNA 1: GACTACGGTTCAAGTCAGCGTGTGGAAAATCTCTAGCAGT
DNA 2: ACTGCTAGAGATTTTCCACACGCTGACTTGAACCGTAGTC
Q: Which results are given for B2?
A: Kd [5]: 10.6 ± 0.5 nM; Kd [6]: 35 ± 4 nM

Reference: PMC3623958, “Structural and Functional Role of INI1 and LEDGF in the HIV-1 Preintegration Complex”
